Measured values taken from patent US7893027B2, “Treatment of ocular wounds and ulcers” (The Board of Regents of the University of Oklahoma, priority 2002, dated 2011).

Tests used:
[1] = test system: human corneal epithelial cells (HCEC); assay: Modified Boyden chamber chemotaxis / checkerboard assay; assay type: cell-based; details: for Number of cells migrated: 4 hr
Description: Human corneal epithelial cells were cultured in basic medium overnight, detached using trypsin-EDTA as described above and resuspended at a final concentration of 8×10^5 cells/ml. Chemotaxis assays were performed using the modified Boyden chamber assay described previously (13). Briefly, 200 (μl of cell suspension was added to the upper chamber and chemoattractants including recombinant CAP37 (10-2000 ng/ml) and the positive control recombinant human Platelet Derived Growth Factor-BB (PDGF-BB, 10 ng/ml, Collaborative Biomedical Products, Bedford Mass.) in 0.1% BSA (endotoxin-low-Sigma, St. Louis) in Geys' Buffer (GIBCO) were added to the lower chamber. The chambers were separated by an 8.0 μm pore membrane (13 mm polyvinylpyrrolidone-free, Whatman, Clifton, N.J.). Membranes were pre-coated with 50 μg/ml collagen type I rat tail (Collaborative Biomedical Products) in 0.02N acetic acid at room temperature for 1 hr and then air dried. Membranes were re-hydrated in basic cell culture medium immediately prior to commencement of each experiment. The negative control in these experiments was 0.1% BSA in Geys' buffer. The chambers were incubated in a humidified atmosphere (37° C., 5% CO2) for 4 hr, the filters were removed, stained with DIFF-QUICK (Dade Behring, Düdingen, Switzerland) and mounted with Permount (FISHER SCIENTIFIC, Pittsburgh, Pa.). The filters were viewed under oil immersion (×400 magnification, BH-2, Olympus, Lake Success, N.Y.) and the total numbers of cells migrated through to the underside of the filter were counted in five different fields on each slide. Triplicates were set up for each experimental point.
To assess whether CAP37 had chemokinetic properties, various concentrations of CAP37 (0, 10, 100 and 1000 ng/ml) were added to the upper chamber as well as to the lower chamber (0, 10, 100, 500, 1000 ng/ml) and a checkerboard assay performed according to the methodology of Zigmond and Hirsch (46).

[2] = test system: α1 (CD49a; VLA-α1); assay: Flow cytometry of integrin expression on HCEC; assay type: cell-based, human
Description: (§1) Flow cytometry was used to assess the upregulation of PECAM-1 (CD31), and the integrin molecules β1 (CD29), β2 (CD18), β3 (CD61), β4 (CD104), α1 (CD49a), α2 (CD49b), α3 (CD49c), α4 (CD 49d), and αv (CD51). Human corneal epithelial cells were cultured as above and treated with CAP37 (0-2000 ng/ml) for 0-72 hr. A corresponding culture was left untreated at each time point. Following treatment with CAP37, cells were detached with 0.25% trypsin in 1 mM EDTA (pH 7.4, FISHER SCIENTIFIC, Pittsburgh, Pa.), washed twice in PBS and fixed with 0.125% paraformaldehyde (J.T. BAKER, Phillipsburg, N.J.) overnight at 4° C. The cells were washed in PBS and then incubated in 0.5% normal goat serum and 0.5% bovine serum albumin (BSA) in PBS for 30 min to block non-specific binding sites. Cells were incubated in the primary antibody (at concentrations described below) at 4° C. for 1 hr followed by the secondary antibody (FITC-goat anti-mouse IgG, PHARMINGEN, San Diego, Calif.) at 0.5 μg/10^6 cells and incubated at 4° C. for 30 min. The isotype control for these studies was FITC-labeled mouse isotype IgG1 (PHARMINGEN). The cells were analyzed by flow cytometry (FACS Calibur, BECTON DICKINSON, San Jose, Calif.). At least ten thousand cells were analyzed for each sample.
(§2) The primary antibodies and the concentrations used in the flow cytometry experiments are as follows: mouse anti-human PECAM-1 (CD31) monoclonal antibody clone HEC7 (0.5 μg/10^6 cells, ENDOGEN, Woburn, Mass.), mouse anti-human very late antigen 1α (VLA-1α, or CD49a) monoclonal antibody clone SR84 (0.5 μg/10^6 cells, PHARMINGEN), mouse anti-human VLA-α2 (CD49b) monoclonal antibody clone AK-7 (0.125 μg/10^6 cells, PHARMINGEN), mouse anti-human α3 (CD49c) monoclonal antibody clone C3II.1 (0.125 μg/10^6 cells, PHARMINGEN), mouse anti-human VLA-4 (α4) monoclonal antibody clone 2B4 (1 μg/10^6 cells, R & D systems, Minneapolis, Minn.), mouse anti human α5 (CD49e) monoclonal antibody clone VC5 (0.125 μg/10^6 cells, PHARMINGEN), mouse anti-human β1 (CD29) monoclonal antibody MAR4 (2 μg/10^6 cells, PHARMINGEN), mouse anti human β2 integrin (CD18) monoclonal antibody clone 6.7 (0.5 μg/10^6 cells, PHARMINGEN), mouse anti human αvβ3 (CD51/CD61) monoclonal antibody clone 23C6 (0.5 μg/10^6 cells, PHARMINGEN), and mouse anti human integrin β4 (CD104) monoclonal antibody clone 450-11A (1.0 μg/10^6 cells, PHARMINGEN). A purified mouse IgG1 κ monoclonal immunoglobulin isotype standard (clone MOPC-31C) was used as the isotype matched control in the flow cytometry experiments.

[3] = test system: α2 (CD49b; VLA-α2); assay: Flow cytometry of integrin expression on HCEC; assay type: cell-based, human
Description: as §1, §2

[4] = test system: α3 (CD49c); assay: Flow cytometry of integrin expression on HCEC; assay type: cell-based, human
Description: as §1, §2

[5] = test system: α4 (CD49d); assay: Flow cytometry of integrin expression on HCEC; assay type: cell-based, human
Description: as §1, §2

[6] = test system: αv β 3 (CD51/CD61); assay: Flow cytometry of integrin expression on HCEC; assay type: cell-based, human
Description: as §1, §2

[7] = test system: β 1 (CD29); assay: Flow cytometry of integrin expression on HCEC; assay type: cell-based, human
Description: as §1, §2

[8] = test system: β 2 (CD18); assay: Flow cytometry of integrin expression on HCEC; assay type: cell-based, human
Description: as §1, §2

[9] = test system: β 4 (CD104); assay: Flow cytometry of integrin expression on HCEC; assay type: cell-based, human
Description: as §1, §2

B1: CAP37: Cationic Antimicrobial Protein of Mr 37 kDa; recombinant protein from human 293 cells, identical to native PMN-derived CAP37 (SEQ ID NO:1) (protein, listed as Homo sapiens)
chain: IVGGRKARPRQFPFLASIQNQGRHFCGGALIHARFVMTAASCFQSQNPGVSTVVLGAYDLRRRERQSRQTFSISSMSENGYDPQQNLNDLMLLQLDREANLTSSVTILPLPLQNATVEAGTRCQVAGWGSQRSGGRLSRFPRFVNVTVTPEDQCRPNNVCTGVLTRRGGICNGDGGTPLVCEGLAHGVASFSLGPCGRGPDFFTRVALFRDWIDGVLNNPGP
For B1, the Chemotactic activity ([1]; 2000 ng/ml) was “reduced but still measurably active”, the “Concentration range of maximal chemotactic activity” value ([1]; Boyden chamber) was 500 to 1000 ng/mL and the “Number of cells migrated” value ([1]; CAP37 above the filter 0 ng/ml, below the filter 10 ng/ml) was 28.56 ± 7.64. For the same molecule, the “Number of cells migrated” value ([1]; CAP37 above the filter 0 ng/ml, below the filter 100 ng/ml) was 39.82 ± 6.20, the “Number of cells migrated” value ([1]; CAP37 above the filter 0 ng/ml, below the filter 500 ng/ml) was 68.89 ± 7.70 and the “Number of cells migrated” value ([1]; CAP37 above the filter 0 ng/ml, below the filter 1000 ng/ml) was 67.34 ± 8.42. For the same molecule, the “Number of cells migrated” value ([1]; CAP37 above the filter 10 ng/ml, below the filter 10 ng/ml) was 27.63 ± 3.03, the “Number of cells migrated” value ([1]; CAP37 above the filter 10 ng/ml, below the filter 100 ng/ml) was 39.80 ± 6.93 and the “Number of cells migrated” value ([1]; CAP37 above the filter 10 ng/ml, below the filter 500 ng/ml) was 52.40 ± 15.76. The “Number of cells migrated” value ([1]; CAP37 above the filter 10 ng/ml, below the filter 1000 ng/ml) was 62.73 ± 9.66, the “Number of cells migrated” value ([1]; CAP37 above the filter 100 ng/ml, below the filter 100 ng/ml) was 36.63 ± 6.48 and the “Number of cells migrated” value ([1]; CAP37 above the filter 100 ng/ml, below the filter 1000 ng/ml) was 48.57 ± 15.58. The “Number of cells migrated” value ([1]; CAP37 above the filter 1000 ng/ml, below the filter 100 ng/ml) was 28.08 ± 2.76, the “Number of cells migrated” value ([1]; CAP37 above the filter 1000 ng/ml, below the filter 1000 ng/ml) was 38.13 ± 6.07 and the “Levels of migration relative to positive control” value ([1]; PDGF-BB 10 ng/ml as positive control) was “comparable to those obtained with the positive control, PDGF”. For the same molecule, the “Effect of CAP37 on integrin α1 (CD49a; VLA-α1)” value [2] was “Constitutive expression - no upregulation”, the “Effect of CAP37 on integrin α2 (CD49b; VLA-α2)” value [3] was “Constitutive expression - no upregulation” and the CD49c protein levels ([4]; 48 and 72 hr) was “returned back to constitutive levels”. For the same molecule, the “Level of CD49c protein expression” value ([4]; 4 hr to 24 hr) was “sustained through 24 hr”, the “Effect of CAP37 on integrin α3 (CD49c)” value ([4]; HCEC, flow cytometry) was “High constitutive expression - significant” and the “Time of initial upregulation of CD49c (α3)” value ([4]; HCEC, flow cytometry) was 4 h. The “Effect of CAP37 on integrin α4 (CD49d)” value [5] was “Low constitutive expression - no upregulation”, the “Effect of CAP37 on integrin αv β 3 (CD51/CD61)” value [6] was “Low constitutive expression - no upregulation” and the “Upregulation of CD29 (β1)” value ([7]; 6 hr) was “clearly significant”. The “Upregulation of CD29 (β1)” value ([7]; 72 hr) was “still significantly elevated above background constitutive levels”, the “Effect of CAP37 on integrin β 1 (CD29)” value ([7]; HCEC, flow cytometry) was “Constitutive expression - significant upregulation” and the “Effect of CAP37 on integrin β 2 (CD18)” value [8] was “No constitutive expression - no upregulation”. For the same molecule, the “Effect of CAP37 on integrin β 4 (CD104)” value [9] was “Constitutive expression - no upregulation”.
